Data as given in patent US7527793 (RUSH UNIVERSITY MEDICAL CENTER, dated 2009).

Tests used:
[1] = molecular target: T1, HLA-A2.1 on T2 cells (human); experiment: T2 peptide binding assay with beta2-microglobulin, anti-HLA-A2.1 staining, flow cytometry; index against T2 + beta2-microglobulin only (1.0)
T1 construct: Peptide-receptive HLA-A2.1 on T2 cells; also called HLA-A2.1 MHC class I molecules

[2] = molecular target: T1, HLA-A2.1 on T2 cells; experiment: peptide binding to HLA-A2.1+ T2 cells, complex stability; Brefeldin A 2 hr (T2 alone 200)
[3] = molecular target: T1, HLA-A2.1 on T2 cells; experiment: peptide binding to HLA-A2.1+ T2 cells, complex stability; Brefeldin A overnight (T2 alone 255)
[4] = molecular target: T1, HLA-A2.1 on T2 cells; experiment: peptide binding to HLA-A2.1+ T2 cells, complex stability; Brefeldin A 6 hr (T2 alone 157)
[5] = molecular target: T1, HLA-A2.1 on T2 cells; experiment: peptide binding to HLA-A2.1+ T2 cells, complex stability; Brefeldin A 4 hr (T2 alone 187)
[6] = molecular target: T1, HLA-A2.1 on T2 cells; experiment: peptide binding to HLA-A2.1+ T2 cells, complex stability; no Brefeldin A (T2 alone 215)
[7] = molecular target: T1, HLA-A2.1 on T2 cells; experiment: peptide binding to HLA-A2.1+ T2 cells, complex stability; Brefeldin A 0 hr (T2 alone 226)

Row | Binder | Fluorescence Index [1] | binding score (HLA-A2.1 on T2 cells) [2] | binding score (HLA-A2.1 on T2 cells) [3] | binding score (HLA-A2.1 on T2 cells) [4] | binding score (HLA-A2.1 on T2 cells) [5] | binding score (HLA-A2.1 on T2 cells) [6] | binding score (HLA-A2.1 on T2 cells) [7]
1 | ALLALCLCL (also called CD33269-277) [CD33 peptide ALLALCLCL (residues 269-277, SEQ ID NO: 8)] | 1.04 |  |  |  |  |  | 
2 | YIISGDSPV (Modified CD33 peptide) [YIISGDSPV (SEQ ID NO: 3)] |  | 588 | 248 | 216 | 380 | 547 | 641
3 | YIIIGDSPV (Modified CD33 peptide) [YIIIGDSPV (SEQ ID NO: 11)] |  | 257 | 325 | 172 | 208 | 263 | 301
4 | YIILGDSPV (Modified CD33 peptide) [YIILGDSPV (SEQ ID NO: 12)] |  | 315 | 323 | 173 | 205 | 465 | 488
5 | ALISGDSPV (Modified CD33 peptide) [ALISGDSPV (SEQ ID NO: 16)] |  | 882 | 366 | 609 | 692 | 603 | 677
6 | YIGSGDSPV (Modified CD33 peptide) [YIGSGDSPV (SEQ ID NO: 10)] |  |  |  | 151 | 167 | 515 | 687
7 | YIISGDLPV (Modified CD33 peptide) [YIISGDLPV (SEQ ID NO: 13)] |  | 524 | 296 | 203 | 307 | 619 | 724
8 | TIQLNVTYV (Native CD33 nonamer, extracellular domain; also called CD33226-234) [CD33 peptide TIQLNVTYV (residues 226-234, SEQ ID NO: 9)] | 0.99 | 173 | 404 | 159 | 180 | 175 | 218

Next, values leading:

Row | Fluorescence Index [1] | binding score (HLA-A2.1 on T2 cells) [2] | binding score (HLA-A2.1 on T2 cells) [3] | binding score (HLA-A2.1 on T2 cells) [4] | binding score (HLA-A2.1 on T2 cells) [5] | binding score (HLA-A2.1 on T2 cells) [6] | binding score (HLA-A2.1 on T2 cells) [7] | Binder
9 |  | 334 | 157 | 168 | 217 | 428 | 426 | YIISGDSPL (Modified CD33 peptide) [YIISGDSPL (SEQ ID NO: 15)]
10 |  | 247 | 298 | 173 | 208 | 209 | 247 | YIISGDSWV (Modified CD33 peptide) [YIISGDSWV (SEQ ID NO: 14)]
11 |  | 929 | 593 | 680 | 839 | 591 | 840 | YIISGISPV (Modified CD33 peptide) [YIISGISPV (SEQ ID NO: 6)]
12 |  | 810 | 479 | 594 | 745 | 701 | 728 | YLISGDSPV (Modified CD33 peptide) [YLISGDSPV (SEQ ID NO: 7)]
